Here are results for 1 molecule from publication PMC12170172, “Initiation of ERAD by the bifunctional complex of Mnl1/Htm1 mannosidase and protein disulfide isomerase” (Nature Structural & Molecular Biology, 2025).

Conditions in all cases: both partners purified
One test deals with T1, Mnl1–FLAG (S. cerevisiae, UniProt P38888 21-796).
T1 construct: Mnl1 (Htm1), luminal ER mannosidase of S. cerevisiae; MHD amino acids 29–514, loop 515–650, CTD 651–796; called 'Full-length' against Mnl1ΔC; The end of the FLAG tag is stated for the GAL1 plasmid; also called Htm1; FLAG-tagged Mnl1; not shown: FLAG, C-terminal, kept
T1 sequence (looked up): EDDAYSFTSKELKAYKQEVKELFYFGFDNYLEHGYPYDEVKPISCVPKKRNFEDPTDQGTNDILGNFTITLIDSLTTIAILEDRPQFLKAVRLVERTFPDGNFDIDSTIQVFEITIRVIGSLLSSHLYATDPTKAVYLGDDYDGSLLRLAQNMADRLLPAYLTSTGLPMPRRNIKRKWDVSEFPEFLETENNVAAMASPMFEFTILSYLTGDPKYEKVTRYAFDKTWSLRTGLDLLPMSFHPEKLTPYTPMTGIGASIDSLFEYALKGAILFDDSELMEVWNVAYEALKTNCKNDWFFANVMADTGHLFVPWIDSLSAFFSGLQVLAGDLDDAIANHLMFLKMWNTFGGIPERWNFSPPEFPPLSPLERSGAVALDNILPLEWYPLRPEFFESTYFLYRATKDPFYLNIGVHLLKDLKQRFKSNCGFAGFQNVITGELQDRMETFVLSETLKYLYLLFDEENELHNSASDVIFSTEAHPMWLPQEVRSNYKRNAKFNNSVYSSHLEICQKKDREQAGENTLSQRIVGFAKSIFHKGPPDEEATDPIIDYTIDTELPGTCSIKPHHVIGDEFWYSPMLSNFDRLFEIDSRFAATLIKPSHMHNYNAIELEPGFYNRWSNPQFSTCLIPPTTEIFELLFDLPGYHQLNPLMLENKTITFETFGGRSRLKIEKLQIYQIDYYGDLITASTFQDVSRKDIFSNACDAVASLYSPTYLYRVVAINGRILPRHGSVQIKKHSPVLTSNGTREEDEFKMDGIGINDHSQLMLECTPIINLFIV
In words: cryo-EM structure; Mnl1–FLAG–Pdi1 complex at 1 mg/ml, purified from detergent-treated yeast membranes with anti-FLAG beads and by size-exclusion chromatography as a 1:1 complex; 25 mM HEPES pH 7.4, 150 mM NaCl. In general terms: In gel filtration, larger molecules generally elute earlier.

In another test the target is T2, Mnl1 (C644S)–FLAG (S. cerevisiae, UniProt P38888 21-796, C644S).
T2 construct: Mnl1 (Htm1) of S. cerevisiae with a substituted loop cysteine; source: S. cerevisiae, overexpressed together with Pdi1, purified as a complex (anti-FLAG M2 resin, Superdex 200); not shown: FLAG, C-terminal, kept
T2 sequence (looked up): T1 sequence (looked up) with C624S
In words: cross-linking; purified complexes of Pdi1 with wild-type or mutant Mnl1 incubated with increasing concentrations of DPS (2,2′-dipyridyldisulfide) to induce disulfides; non-reducing SDS-PAGE, Coomassie blue.

Another test addresses T3, Mnl1 mCTD–FLAG (S. cerevisiae, UniProt P38888 21-796, L655N | F770Y | M772K).
T3 construct: Mnl1 (Htm1) of S. cerevisiae with three hydrophobic residues of the CTD groove changed to hydrophilic ones; source: S. cerevisiae, overexpressed together with Pdi1, purified as a complex (anti-FLAG M2 resin, Superdex 200); not shown: FLAG, C-terminal, kept
T3 sequence (looked up): T1 sequence (looked up) with L635N, F750Y, M752K
In words: cross-linking; competition: RBΔS, RBun or RBsc incubated with Mnl1–Pdi1 complex at the indicated molar ratios (tenfold excess in Fig. 6) in 25 mM HEPES pH 7.4, 150 mM NaCl, 0.1% Nonidet P-40, 2 mM CaCl2, 30 °C 30 min; then DPS 30 °C 30 min, N-ethylmaleimide; SDS-PAGE, Coomassie blue.

Changes are numbered by the printed parent chain.

B1: Pdi1 (protein disulfide isomerase) (enzyme, S. cerevisiae, UniProt P17967 29-522, looked up)
chain: PEDSAVVKLATDSFNEYIQSHDLVLAEFFAPWCGHCKNMAPEYVKAAETLVEKNITLAQIDCTENQDLCMEHNIPGFPSLKIFKNSDVNNSIDYEGPRTAEAIVQFMIKQSQPAVAVVADLPAYLANETFVTPVIVQSGKIDADFNATFYSMANKHFNDYDFVSAENADDDFKLSIYLPSAMDEPVVYNGKKADIADADVFEKWLQVEALPYFGEIDGSVFAQYVESGLPLGYLFYNDEEELEEYKPLFTELAKKNRGLMNFVSIDARKFGRHAGNLNMKEQFPLFAIHDMTEDLKYGLPQLSEEAFDELSDKIVLESKAIESLVKDFLKGDASPIVKSQEIFENQDSSVFQLVGKNHDEIVNDPKKDVLVLYYAPWCGHCKRLAPTYQELADTYANATSDVLIAKLDHTENDVRGVVIEGYPTIVLYPGGKKSESVVYQGSRSLDSLFDFIKENGHFDVDGKALYEEAQEKAAEEADADAELADEEDAIHDEL
notes: Pdi1, protein disulfide isomerase of S. cerevisiae, untagged; Trx domains a, b, b′ and a′; amino acids 24–500 could be modelled; source: S. cerevisiae, overexpressed together with Mnl1–FLAG (GAL1 promoter), purified as a complex
Usually stoichiometry N stands for the number of molecules, sites or subunits per partner or assembly. Regarding B1, the “stoichiometry N” value with Mnl1–FLAG was 1. Further, the binding result in the test with Mnl1 (C644S)–FLAG and in the test with Mnl1 mCTD–FLAG was “binds” each time.
